# Results as given in publication doi:10.1101/2025.04.04.647159.
# Molecular target: Candidatus Liberibacter asiaticus pyrophosphate-fructose-6-phosphate 1-phosphotransferase (Candidatus Liberibacter asiaticus)
# Assay: SEC
substance,measurement,value
Candidatus Liberibacter asiaticus pyrophosphate-fructose-6-phosphate 1-phosphotransferase (enzyme),stoichiometry N,4
